From US20240209076A1 (KODIAK SCIENCES, published 2024)
Positions count from the first letter of the chain named. In names and notes the source's numbering stands.

B1: anti-IL-6 antibody, heavy chain T63G, G66D / light chain M32L, M50D, N52S, M88Q (antibody, IgG1, V domains shown)
VH: EVQLVESGGGLVQPGGSLRLSCAASGFTFSPFAMSWVRQAPGKGLEWVAKISPGGSWTYYSDGVTDRFTFSLDTSKSTAYLQMNSLRAEDTAVYYCARQLWGYYALDIWGQGTLVTVSS
VL: DIQLTQSPSSLSASVGDRVTITCSASISVSYLYWYQQKPGKAPKLLIYDDSSLASGVPSRFSGSGSGTDFTLTISSLQPEDFATYYCQQWSGYPYTFGQGTKVEIK
notes: Full IgG1 (Expi293); VL = variant III
B2: anti-IL-6 antibody, heavy chain T63I, G66D / light chain M32L, M50D, N52S, M88Q (antibody, IgG1, V domains shown)
VH: B1 VH with G63I
VL: B1 VL
notes: as for B1
B3: anti-IL-6 antibody, heavy chain I51H, G66D / light chain M32L, M50D, N52S, M88Q (antibody, human IgG1, V domains shown)
VH: B1 VH with I51H, G63T
VL: B1 VL
notes: Human IgG1
B4: anti-IL-6 antibody, heavy chain T65D, G66D / light chain M32L, M50D, N52S, M88Q (antibody, IgG1, V domains shown)
VH: B1 VH with G63T, T65D
VL: B1 VL
notes: as for B1
B5: anti-IL-6 antibody, heavy chain I51K, G66D / light chain M32L, M50D, N52S, M88Q (antibody, human IgG1, V domains shown)
VH: B1 VH with I51K, G63T
VL: B1 VL
notes: Human IgG1
B6: anti-IL-6 antibody, heavy chain T63W, G66D / light chain M32L, M50D, N52S, M88Q (antibody, IgG1, V domains shown)
VH: B1 VH with G63W
VL: B1 VL
notes: as for B1
B7: anti-IL-6 antibody, heavy chain T65R, G66D / light chain M32L, M50D, N52S, M88Q (antibody, IgG1, V domains shown)
VH: B1 VH with G63T, T65R
VL: B1 VL
notes: as for B1
B8: anti-IL-6 antibody, heavy chain T63P, G66D / light chain M32L, M50D, N52S, M88Q (antibody, IgG1, V domains shown)
VH: B1 VH with G63P
VL: B1 VL
notes: as for B1
B9: anti-IL-6 antibody, heavy chain I51A, G66D / light chain M32L, M50D, N52S, M88Q (antibody, human IgG1, V domains shown)
VH: B1 VH with I51A, G63T
VL: B1 VL
notes: Human IgG1
B10: anti-IL-6 antibody, heavy chain I51G, G66D / light chain M32L, M50D, N52S, M88Q (antibody, human IgG1, V domains shown)
VH: B1 VH with I51G, G63T
VL: B1 VL
notes: Human IgG1
B11: anti-IL-6 antibody, heavy chain I51Q, G66D / light chain M32L, M50D, N52S, M88Q (antibody, human IgG1, V domains shown)
VH: B1 VH with I51Q, G63T
VL: B1 VL
notes: Human IgG1
B12: anti-IL-6 antibody, heavy chain T65G, G66D / light chain M32L, M50D, N52S, M88Q (antibody, IgG1, V domains shown)
VH: B1 VH with G63T, T65G
VL: B1 VL
notes: as for B1
B13: anti-IL-6 antibody, heavy chain T63V, G66D / light chain M32L, M50D, N52S, M88Q (antibody, IgG1, V domains shown)
VH: B1 VH with G63V
VL: B1 VL
notes: as for B1
B14: anti-IL-6 antibody, heavy chain T65W, G66D / light chain M32L, M50D, N52S, M88Q (antibody, IgG1, V domains shown)
VH: B1 VH with G63T, T65W
VL: B1 VL
notes: as for B1
B15: anti-IL-6 antibody, heavy chain T65S, G66D / light chain M32L, M50D, N52S, M88Q (antibody, IgG1, V domains shown)
VH: B1 VH with G63T, T65S
VL: B1 VL
notes: as for B1
B16: anti-IL-6 antibody, heavy chain I51T, G66D / light chain M32L, M50D, N52S, M88Q (antibody, human IgG1, V domains shown)
VH: B1 VH with I51T, G63T
VL: B1 VL
notes: Human IgG1
B17: anti-IL-6 antibody, heavy chain I51R, G66D / light chain M32L, M50D, N52S, M88Q (antibody, human IgG1, V domains shown)
VH: B1 VH with I51R, G63T
VL: B1 VL
notes: Human IgG1
B18: anti-IL-6 antibody, heavy chain T65P, G66D / light chain M32L, M50D, N52S, M88Q (antibody, IgG1, V domains shown)
VH: B1 VH with G63T, T65P
VL: B1 VL
notes: as for B1
B19: anti-IL-6 antibody, heavy chain I51E, G66D / light chain M32L, M50D, N52S, M88Q (antibody, human IgG1, V domains shown)
VH: B1 VH with I51E, G63T
VL: B1 VL
notes: Human IgG1
B20: anti-IL-6 antibody, heavy chain I51L, G66D / light chain M32L, M50D, N52S, M88Q (antibody, human IgG1, V domains shown)
VH: B1 VH with I51L, G63T
VL: B1 VL
notes: Human IgG1
B21: anti-IL-6 antibody, heavy chain T65A, G66D / light chain M32L, M50D, N52S, M88Q (antibody, IgG1, V domains shown)
VH: B1 VH with G63T, T65A
VL: B1 VL
notes: as for B1
B22: anti-IL-6 antibody, heavy chain I51S, G66D / light chain M32L, M50D, N52S, M88Q (antibody, human IgG1, V domains shown)
VH: B1 VH with I51S, G63T
VL: B1 VL
notes: Human IgG1
B23: anti-IL-6 antibody, heavy chain T63R, G66D / light chain M32L, M50D, N52S, M88Q (antibody, IgG1, V domains shown)
VH: B1 VH with G63R
VL: B1 VL
notes: as for B1
B24: anti-IL-6 antibody, heavy chain T63S, G66D / light chain M32L, M50D, N52S, M88Q (antibody, IgG1, V domains shown)
VH: B1 VH with G63S
VL: B1 VL
notes: as for B1
B25: anti-IL-6 antibody, heavy chain T63H, G66D / light chain M32L, M50D, N52S, M88Q (antibody, IgG1, V domains shown)
VH: B1 VH with G63H
VL: B1 VL
notes: as for B1
B26: anti-IL-6 antibody, heavy chain I51F, G66D / light chain M32L, M50D, N52S, M88Q (antibody, human IgG1, V domains shown)
VH: B1 VH with I51F, G63T
VL: B1 VL
notes: Human IgG1
B27: anti-IL-6 antibody, heavy chain T65V, G66D / light chain M32L, M50D, N52S, M88Q (antibody, IgG1, V domains shown)
VH: B1 VH with G63T, T65V
VL: B1 VL
notes: as for B1
B28: anti-IL-6 antibody, heavy chain T65F, G66D / light chain M32L, M50D, N52S, M88Q (antibody, IgG1, V domains shown)
VH: B1 VH with G63T, T65F
VL: B1 VL
notes: as for B1
B29: anti-IL-6 antibody, heavy chain T65E, G66D / light chain M32L, M50D, N52S, M88Q (antibody, IgG1, V domains shown)
VH: B1 VH with G63T, T65E
VL: B1 VL
notes: as for B1
B30: anti-IL-6 antibody, heavy chain T65L, G66D / light chain M32L, M50D, N52S, M88Q (antibody, IgG1, V domains shown)
VH: B1 VH with G63T, T65L
VL: B1 VL
notes: as for B1
B31: anti-IL-6 antibody, heavy chain T65K, G66D / light chain M32L, M50D, N52S, M88Q (antibody, IgG1, V domains shown)
VH: B1 VH with G63T, T65K
VL: B1 VL
notes: as for B1
B32: anti-IL-6 antibody, heavy chain T63L, G66D / light chain M32L, M50D, N52S, M88Q (antibody, IgG1, V domains shown)
VH: B1 VH with G63L
VL: B1 VL
notes: as for B1
B33: anti-IL-6 antibody, heavy chain T63Y, G66D / light chain M32L, M50D, N52S, M88Q (antibody, IgG1, V domains shown)
VH: B1 VH with G63Y
VL: B1 VL
notes: as for B1
B34: anti-IL-6 antibody, heavy chain T65Y, G66D / light chain M32L, M50D, N52S, M88Q (antibody, IgG1, V domains shown)
VH: B1 VH with G63T, T65Y
VL: B1 VL
notes: as for B1
B35: anti-IL-6 antibody, heavy chain I51V, G66D / light chain M32L, M50D, N52S, M88Q (antibody, human IgG1, V domains shown)
VH: B1 VH with I51V, G63T
VL: B1 VL
notes: Human IgG1
B36: anti-IL-6 antibody, heavy chain I51D, G66D / light chain M32L, M50D, N52S, M88Q (antibody, human IgG1, V domains shown)
VH: B1 VH with I51D, G63T
VL: B1 VL
notes: Human IgG1
B37: anti-IL-6 antibody, heavy chain T65H, G66D / light chain M32L, M50D, N52S, M88Q (antibody, IgG1, V domains shown)
VH: B1 VH with G63T, T65H
VL: B1 VL
notes: as for B1

Key:
[1] = target: T1, human IL-6 (human, UniProt P05231 30-212); assay: SPR Biacore, supernatant Ab on Protein A chip, 37 C
T1 construct: IL-6 flowed over captured antibodies
Experimental: (§1) Antibodies were captured on a Protein A chip (GE) by injecting 1:20 cell supernatant dilutions at 10 μL/min for 60 seconds. […] The sensor chip was regenerated by a 60 seconds injection of 10 mM Glycine pH 1.7 at the flow rate of 50 μL/min. […] For this setup, 1 μg/mL of purified antibody was injected over a Protein A chip at 10 μL/min for 25 seconds. […] The sensor chip was regenerated by a 60 seconds injection of 10 mM Glycine pH 1.7 at flow rate of 50 μL/min. Data analysis for supernatant and purified samples were performed using BIAevaluation software (GE). All sensorgrams were double reference subtracted and fit using a 1:1 Langmuir binding model.
T1 sequence (P05231 30-212 limits assumed): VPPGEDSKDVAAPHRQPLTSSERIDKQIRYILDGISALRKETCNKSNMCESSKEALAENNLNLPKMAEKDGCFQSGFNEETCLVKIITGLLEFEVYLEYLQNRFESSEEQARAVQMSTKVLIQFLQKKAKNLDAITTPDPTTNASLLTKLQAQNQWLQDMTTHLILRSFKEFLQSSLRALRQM

[2] = target: human IL-6 (human, UniProt P05231 30-212); assay: SPR (Biacore), supernatant antibody on Protein A chip, IL-6 flowed, 37 C
Experimental: as §1
Target sequence in this assay (P05231 30-212 limits assumed): as above

| Binder | Kd [1] [nM] | koff [1] [s⁻¹] | kon [1] [M⁻¹ s⁻¹] | Kd [2] [nM] | koff [2] [s⁻¹] | kon [2] [M⁻¹ s⁻¹] |
| --- | --- | --- | --- | --- | --- | --- |
| B1 | 0.261 | 0.00045 | 1.73e+06 |  |  |  |
| B2 | 0.288 | 0.000446 | 1.55e+06 |  |  |  |
| B3 |  |  |  | 0.5 | 0.00104 | 2.07e+06 |
| B4 | 0.465 | 0.00048 | 1.03e+06 |  |  |  |
| B5 |  |  |  | 0.349 | 0.000601 | 1.72e+06 |
| B6 | 0.286 | 0.000449 | 1.57e+06 |  |  |  |
| B7 | 0.327 | 0.000532 | 1.63e+06 |  |  |  |
| B8 | 0.246 | 0.000419 | 1.7e+06 |  |  |  |
| B9 |  |  |  | 0.559 | 0.000899 | 1.61e+06 |
| B10 |  |  |  | 0.652 | 0.000912 | 1.4e+06 |
| B11 |  |  |  | 0.575 | 0.00113 | 1.96e+06 |
| B12 | 0.311 | 0.000477 | 1.53e+06 |  |  |  |
| B13 | 0.274 | 0.00043 | 1.57e+06 |  |  |  |
| B14 | 0.322 | 0.000384 | 1.19e+06 |  |  |  |
| B15 | 0.31 | 0.000441 | 1.42e+06 |  |  |  |
| B16 |  |  |  | 0.233 | 0.000478 | 2.05e+06 |
| B17 |  |  |  | 0.0357 | 5.8e-05 | 1.63e+06 |
| B18 | 0.601 | 0.00108 | 1.79e+06 |  |  |  |
| B19 |  |  |  | 2.14 | 0.00196 | 914000 |

| Binder | Kd [1] [nM] | koff [1] [s⁻¹] | kon [1] [M⁻¹ s⁻¹] | Kd [2] [nM] | koff [2] [s⁻¹] | kon [2] [M⁻¹ s⁻¹] |
| --- | --- | --- | --- | --- | --- | --- |
| B20 |  |  |  | 0.98 | 0.00161 | 1.64e+06 |
| B21 | 0.239 | 0.000542 | 2.27e+06 |  |  |  |
| B22 |  |  |  | 0.217 | 0.000401 | 1.85e+06 |
| B23 | 0.273 | 0.000526 | 1.92e+06 |  |  |  |
| B24 | 0.278 | 0.000499 | 1.8e+06 |  |  |  |
| B25 | 0.28 | 0.000481 | 1.72e+06 |  |  |  |
| B26 |  |  |  | 4.45 | 0.00611 | 1.37e+06 |
| B27 | 0.281 | 0.000551 | 1.96e+06 |  |  |  |
| B28 | 0.291 | 0.000391 | 1.34e+06 |  |  |  |
| B29 | 0.279 | 0.000474 | 1.7e+06 |  |  |  |
| B30 | 0.293 | 0.000446 | 1.53e+06 |  |  |  |
| B31 | 0.356 | 0.000579 | 1.63e+06 |  |  |  |
| B32 | 0.283 | 0.000454 | 1.6e+06 |  |  |  |
| B33 | 0.241 | 0.000459 | 1.91e+06 |  |  |  |
| B34 | 0.237 | 0.000367 | 1.55e+06 |  |  |  |
| B35 |  |  |  | 1.11 | 0.00195 | 1.76e+06 |
| B36 |  |  |  | 9.58 | 0.00799 | 834000 |
| B37 | 0.297 | 0.000423 | 1.43e+06 |  |  |  |
